Usually Kd stands for the concentration at which binding is half-saturated. A higher Kd goes with a looser complex.

Some targets named below: HiBiT-FZD7-mCherry (mouse, UniProt Q61090 33-572); HiBiT-FZD2-mCherry (mouse, UniProt Q9JIP6 29-570); HiBiT-FZD1-mCherry (mouse, UniProt O70421 69-642).
A further test has as its target T1, HiBiT-FZD4-mCherry (mouse, UniProt Q61088 37-537).
T1 chain: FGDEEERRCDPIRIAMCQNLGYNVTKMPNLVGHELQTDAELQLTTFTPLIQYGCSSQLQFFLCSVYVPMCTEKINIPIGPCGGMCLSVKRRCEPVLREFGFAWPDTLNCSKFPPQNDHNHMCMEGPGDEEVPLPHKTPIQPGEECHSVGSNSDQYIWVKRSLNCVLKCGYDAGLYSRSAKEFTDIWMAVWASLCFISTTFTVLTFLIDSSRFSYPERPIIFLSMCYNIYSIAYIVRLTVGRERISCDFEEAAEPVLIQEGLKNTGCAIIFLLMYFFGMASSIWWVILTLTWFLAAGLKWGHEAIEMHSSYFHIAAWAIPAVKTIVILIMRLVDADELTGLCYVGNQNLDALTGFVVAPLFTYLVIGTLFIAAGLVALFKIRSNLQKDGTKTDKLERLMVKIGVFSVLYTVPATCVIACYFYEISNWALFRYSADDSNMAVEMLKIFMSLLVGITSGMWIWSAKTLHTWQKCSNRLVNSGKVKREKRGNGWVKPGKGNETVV

The target of a further test is T2, HiBiT-FZD8-mCherry (mouse, UniProt Q61091 28-685).
T2 chain: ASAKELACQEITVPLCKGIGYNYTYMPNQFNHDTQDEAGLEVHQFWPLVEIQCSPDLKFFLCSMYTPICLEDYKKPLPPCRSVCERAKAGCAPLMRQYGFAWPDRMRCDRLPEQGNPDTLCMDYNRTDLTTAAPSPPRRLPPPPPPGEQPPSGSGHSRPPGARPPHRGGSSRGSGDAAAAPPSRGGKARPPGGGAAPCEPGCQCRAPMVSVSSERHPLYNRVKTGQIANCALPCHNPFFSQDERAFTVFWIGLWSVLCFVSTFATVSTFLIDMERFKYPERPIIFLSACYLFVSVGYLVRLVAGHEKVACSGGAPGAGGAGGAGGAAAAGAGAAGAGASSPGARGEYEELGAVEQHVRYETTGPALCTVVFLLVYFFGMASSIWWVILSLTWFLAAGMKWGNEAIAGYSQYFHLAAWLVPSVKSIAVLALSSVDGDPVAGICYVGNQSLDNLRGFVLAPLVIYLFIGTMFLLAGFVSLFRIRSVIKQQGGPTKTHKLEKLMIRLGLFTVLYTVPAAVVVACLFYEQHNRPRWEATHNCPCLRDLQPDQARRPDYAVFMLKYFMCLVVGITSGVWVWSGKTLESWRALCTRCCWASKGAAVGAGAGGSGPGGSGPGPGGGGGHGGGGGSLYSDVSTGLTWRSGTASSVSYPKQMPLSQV

The target of test [1] is T3, HiBiT-FZD5-mCherry (U-2 OS cells) (mouse, UniProt Q9EQD0 27-585).
T3 chain: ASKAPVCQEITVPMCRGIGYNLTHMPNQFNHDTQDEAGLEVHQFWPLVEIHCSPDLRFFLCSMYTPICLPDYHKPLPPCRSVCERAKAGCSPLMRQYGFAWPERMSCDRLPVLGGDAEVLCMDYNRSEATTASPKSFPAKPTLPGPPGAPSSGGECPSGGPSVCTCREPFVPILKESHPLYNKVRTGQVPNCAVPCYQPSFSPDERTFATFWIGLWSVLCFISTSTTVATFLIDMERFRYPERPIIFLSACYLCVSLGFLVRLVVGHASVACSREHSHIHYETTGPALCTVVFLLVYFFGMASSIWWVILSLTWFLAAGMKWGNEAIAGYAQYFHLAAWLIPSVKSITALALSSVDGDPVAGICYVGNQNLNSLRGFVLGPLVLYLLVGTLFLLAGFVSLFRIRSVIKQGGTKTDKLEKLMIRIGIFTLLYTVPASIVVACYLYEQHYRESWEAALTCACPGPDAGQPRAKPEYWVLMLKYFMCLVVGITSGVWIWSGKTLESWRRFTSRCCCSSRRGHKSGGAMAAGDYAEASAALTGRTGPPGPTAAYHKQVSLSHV

HiBiT-FZD2-mCherry, sequence (Q9JIP6 29-570): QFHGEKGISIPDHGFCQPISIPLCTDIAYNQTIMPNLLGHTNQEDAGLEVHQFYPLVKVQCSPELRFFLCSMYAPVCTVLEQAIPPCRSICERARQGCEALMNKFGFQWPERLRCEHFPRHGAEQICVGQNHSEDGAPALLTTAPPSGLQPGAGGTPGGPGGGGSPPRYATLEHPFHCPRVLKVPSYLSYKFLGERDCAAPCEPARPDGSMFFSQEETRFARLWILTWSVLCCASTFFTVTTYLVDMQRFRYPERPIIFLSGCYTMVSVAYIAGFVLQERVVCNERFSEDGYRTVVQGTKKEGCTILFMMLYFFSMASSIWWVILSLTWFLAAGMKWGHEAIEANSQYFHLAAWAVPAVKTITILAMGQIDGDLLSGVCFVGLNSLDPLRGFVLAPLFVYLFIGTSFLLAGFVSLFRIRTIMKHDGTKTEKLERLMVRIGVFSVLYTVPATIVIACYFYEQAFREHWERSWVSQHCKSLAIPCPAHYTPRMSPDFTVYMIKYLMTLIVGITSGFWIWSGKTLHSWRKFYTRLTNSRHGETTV
HiBiT-FZD1-mCherry, sequence (O70421 69-642): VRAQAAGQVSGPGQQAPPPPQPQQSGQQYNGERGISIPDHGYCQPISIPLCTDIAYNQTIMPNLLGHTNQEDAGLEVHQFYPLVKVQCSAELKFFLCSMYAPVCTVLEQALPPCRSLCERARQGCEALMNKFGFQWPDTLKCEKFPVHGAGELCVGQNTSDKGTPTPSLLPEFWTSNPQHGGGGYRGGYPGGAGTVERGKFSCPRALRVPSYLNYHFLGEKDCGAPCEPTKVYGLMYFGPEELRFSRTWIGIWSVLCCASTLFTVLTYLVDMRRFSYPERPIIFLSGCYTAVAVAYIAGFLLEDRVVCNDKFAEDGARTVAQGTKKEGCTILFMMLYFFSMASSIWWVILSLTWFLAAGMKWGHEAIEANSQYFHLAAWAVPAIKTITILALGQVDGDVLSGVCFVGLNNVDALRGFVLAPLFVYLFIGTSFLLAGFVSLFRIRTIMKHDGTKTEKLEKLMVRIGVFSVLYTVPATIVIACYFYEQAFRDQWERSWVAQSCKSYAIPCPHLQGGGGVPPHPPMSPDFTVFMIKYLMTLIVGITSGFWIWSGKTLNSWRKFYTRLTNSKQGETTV

B1: eGFP-Wnt16 (ligand)
chain: NWMWLGIASFGVPEKLGCANLPLNSRQKELCKRKPYLLPSIREGARLGIQECGSQFRHERWNCMITAAATTAPMGASPLFGYELSSGTKETAFIYAVMAAGLVHSVTRSCSAGNMTECSCDTTLQNGGSASEGWHWGGCSDDVQYGMWFSRKFLDFPIGNTTGKENKVLLAMNLHNNEAGRQAVAKLMSVDCRCHGVSGSCAVKTCWKTMSSFEKIGHLLKDKYENSIQISDKTKRKMRRREKDQRKIPIHKDDLLYVNKSPNYCVEDKKLGIPGTQGRECNRTSEGADGCNLLCCGRGYNTHVVRHVERCECKFIWCCYVRCRRCESMTDVHTCK
In the case of B1, the Kd is 21.8 nM with HiBiT-FZD4-mCherry; 6.62 nM in the test with HiBiT-FZD8-mCherry; 10.3 nM with HiBiT-FZD7-mCherry; 10.6 nM with HiBiT-FZD2-mCherry; 30.7 nM in the test with HiBiT-FZD1-mCherry; 14.2 nM in test [1].

B2: eGFP-Wnt5a (ligand)
chain: IIGAQPLCSQLAGLSQGQKKLCHLYQDHMQYIGEGAKTGIKECQYQFRHRRWNCSTVDNTSVFGRVMQIGSRETAFTYAVSAAGVVNAMSRACREGELSTCGCSRAARPKDLPRDWLWGGCGDNIDYGYRFAKEFVDARERERIHAKGSYESARILMNLHNNEAGRRTVYNLADVACKCHGVSGSCSLKTCWLQLADFRKVGDALKEKYDSAAAMRLNSRGKLVQVNSRFNSPTTQDLVYIDPSPDYCVRNESTGSLGTQGRLCNKTSEGMDGCELMCCGRGYDQFKTVQTERCHCKFHWCCYVKCKKCTEIVDQFVCK
For B2, the Kd came to 3.56 nM in the test with HiBiT-FZD4-mCherry; 7.52 nM in the test with HiBiT-FZD8-mCherry; 1.25 nM with HiBiT-FZD7-mCherry; 3.85 nM with HiBiT-FZD2-mCherry; 14.4 nM with HiBiT-FZD1-mCherry; 16.2 nM in test [1].

The record behind these values is publication PMC12153800 (2025).
